The chains are these.
B1: 25H7 Fab antibody (Fab, V domains shown)
VH: EIQLVQSGPELKKPGETVKISCKASGYTFTNYGMNWVKQTPGKGLKWMGWINTDTGEPTYADDFKGRFAFSLETSASTAYLQINNLKNEDMATYFCAREEDYRYVFNYWGQGTTLTVSS
VL: DIQMTQTTSSLSASLGDRVTISCRASQDISNYLNWYQQKPDGTVKLLIYYTSRLHSGVPSRFSGSGSGTDYSLTISNLEQEDIATYFCQQGVTLPLTFGAGTKLELK
notes: Purified Fab from the mouse Fab phage display library
B2: 39H5 Fab antibody (Fab, V domains shown)
VH: B1 VH with T40A, K43Q, D54Y, K65T, T93A
VL: B1 VL with T5I, T7S, D17N, Y50D, S56A, L106I
notes: as for B1
B3: 26G11 Fab antibody (Fab, V domains shown)
VH: QVQLQQSGPELVKPGASVKISCKTSGYTFADYTMHWVRQSQGKSLEWIGDIYPNDGGPNNNQKFKDKATLTVDKSSSTAYMELRSLTSEDSAVYYCARPFYYGNYAGFAFWGQGTLVTVSA
VL: EMVLTQSPAIMSASPGEKVTMTCSASSSVSYMYWYQQKPGSSPRLLIYDTSNLASGVPVRFSGSGSGTSYSLTISRMEAEDAATYYCQQWSSYPLTFGAGTRLEIK
notes: as for B1

Residue numbers refer to the chain shown, from its start.

One assay concerns the target T1, human CD70, full length, on CHO cells (CHO-human CD70-B07) (human, UniProt P32970 1-193).
T1 construct: whole, on cells; Stably transfected CHO cells; also called CHO-CD70
T1 sequence (looked up): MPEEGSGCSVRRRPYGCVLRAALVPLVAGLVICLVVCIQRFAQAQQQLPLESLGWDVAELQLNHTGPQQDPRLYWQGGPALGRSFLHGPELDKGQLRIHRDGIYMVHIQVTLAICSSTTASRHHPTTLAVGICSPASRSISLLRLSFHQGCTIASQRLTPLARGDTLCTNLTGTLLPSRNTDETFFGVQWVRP
Kind of assay: flow cytometry, Fab on CHO-human CD70 cells. As for the experimental part:
(§1) The blank control cell CHO and stably-transfected cell line CHO-CD70 were prepared and added at 5×10⁴ cells/well into a 96-well plate respectively. 50 μL of Fab antibodies with different dilution gradients were added into each well and incubated at 4° C. for 60 minutes. The centrifuge was performed to discard the supernatant. The plate was washed with 0.5% BSA/PBS and added with 50 μL of a secondary antibody solution (Anti-human IgG F (ab′) 2-AF647, Jackson Immuno Research) and incubated at 4° C. for 45 minutes. The excess secondary antibody was washed off with 0.5% BSA. The PBS solution was added to resuspend cells for flow cytometry. The data was collected.
For orientation: A flow cytometer gives signals particle by particle.
For the molecule B1, the EC50 (as a rule, the concentration giving half of the maximal effect) came out at 15.5 nM.

B2 returned a half-maximal effective concentration (EC50) of 8.7 nM.

In turn, B3 gave an EC50 of 40.7 nM.

The next assay concerns the target T2, recombinant trimeric protein of human CD70 extracellular region (human CD70 mIgG Fc (knob) / mouse IgG Fc … (human, UniProt P01863 98-330 = IgG part)).
T2 construct: The ELISA and Octet texts say only 'recombinant CD70 protein' / 'CM352 antigen'; also called recombinant human CD70 protein; recombinant CD70 protein
T2 chain 1: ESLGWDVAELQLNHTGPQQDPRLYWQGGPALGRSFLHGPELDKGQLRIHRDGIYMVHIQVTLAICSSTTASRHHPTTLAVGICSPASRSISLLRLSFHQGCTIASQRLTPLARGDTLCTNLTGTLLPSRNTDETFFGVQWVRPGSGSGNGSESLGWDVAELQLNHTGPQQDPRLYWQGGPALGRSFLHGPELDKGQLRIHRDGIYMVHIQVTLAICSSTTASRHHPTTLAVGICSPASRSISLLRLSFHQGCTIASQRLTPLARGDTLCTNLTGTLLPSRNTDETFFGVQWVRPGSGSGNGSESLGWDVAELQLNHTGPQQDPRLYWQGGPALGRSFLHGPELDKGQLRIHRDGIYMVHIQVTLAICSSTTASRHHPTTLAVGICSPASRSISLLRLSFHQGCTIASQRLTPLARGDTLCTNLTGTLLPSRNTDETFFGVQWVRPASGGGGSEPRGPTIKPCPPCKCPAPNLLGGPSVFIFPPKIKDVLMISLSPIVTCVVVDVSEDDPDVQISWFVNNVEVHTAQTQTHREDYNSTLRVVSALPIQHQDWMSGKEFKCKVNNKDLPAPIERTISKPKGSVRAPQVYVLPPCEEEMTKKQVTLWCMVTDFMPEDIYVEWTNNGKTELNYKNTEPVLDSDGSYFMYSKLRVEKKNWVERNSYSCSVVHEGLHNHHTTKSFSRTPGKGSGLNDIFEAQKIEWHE
T2 chain 2: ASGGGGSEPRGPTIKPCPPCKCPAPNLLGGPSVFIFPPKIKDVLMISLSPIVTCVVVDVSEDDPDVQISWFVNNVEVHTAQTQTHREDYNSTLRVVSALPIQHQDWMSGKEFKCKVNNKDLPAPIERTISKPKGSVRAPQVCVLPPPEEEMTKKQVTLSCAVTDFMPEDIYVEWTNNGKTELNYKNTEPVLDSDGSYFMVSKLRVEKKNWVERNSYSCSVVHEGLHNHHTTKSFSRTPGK
The experiment in a line: BLI (Octet), biotin antigen on SA probe, Fab in solution. In general terms: BLI is a label-free optical method that tracks binding on a fibre tip over time.
As to B1, the koff (in general, a measure of how fast the partners let go of each other) came out at 0.000326 s⁻¹.

For B2, the koff is 9e-05 s⁻¹.

In the case of B3, the koff turned out to be 0.000287 s⁻¹.

The target in another assay is T2, recombinant trimeric protein of human …. Kind of assay: competition ELISA, Fab titrated, human CD27 coated, biotin-CD70. As for the experimental part:
(§2) The next day, the plate was washed 3 times with PBS, added with 200 μL of 2% defatted dry milk/PBS, blocked at room temperature for 2 hours, and washed once with PBS, 50 μL of different dilution gradients of Fab antibodies were added and incubated at room temperature for 30 minutes. […] The plate was washed 3 times with PBST and PBS and dried by spinning. A secondary antibody solution Streptavidin-coupled horseradish peroxidase SA-HRP (BD bioscience, Cat. No: 6222697) was diluted with 0.5% BSA in a ratio of 1:8000. 100 μl of the diluent was added into each well and incubate at room temperature for 30 minutes. The plate was washed 3 times with PBST and PBS and dried by spinning. 100 μl of the color development solution (TMB solution, Sigma, Cat. No: T2885) was added into each well and protected from light at 37° C. for reaction. After the substrate developed moderately, 50 μl of 2M concentrated sulfuric acid solution was added into each well to terminate the reaction. The OD450 nm was determined by using an enzyme-linked detector within 30 minutes, and the data was collected.
Background: In an ELISA, binding on a coated surface is turned into a signal by an enzyme label.
For B1, the IC50 – broadly, the concentration needed to halve the response being measured – stood at 0.76 nM.

Take B2: the IC50 is 0.38 nM.

Regarding B3, the IC50 was determined as 4.82 nM.

For the next assay, the target named is T3, cynomolgus monkey CD70, full length, on CHO cells (CHO-monkey CD70-D01) (cynomolgus monkey, UniProt A0A2K5WTU9 1-190).
T3 construct: whole, on cells; Stably transfected CHO cells; also called CHO-cynomolgus monkey CD70
T3 sequence: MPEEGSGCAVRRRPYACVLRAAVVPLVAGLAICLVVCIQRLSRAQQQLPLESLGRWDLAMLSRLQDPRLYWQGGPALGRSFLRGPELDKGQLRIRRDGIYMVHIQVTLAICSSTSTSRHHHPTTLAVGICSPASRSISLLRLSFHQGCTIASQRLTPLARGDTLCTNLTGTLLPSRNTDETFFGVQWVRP
The experiment in a line: flow cytometry, Fab on CHO-cynomolgus CD70 cells. Here is the method: as §1
Molecule B1 registered an EC50 of 23.4 nM.

As to B2, a half-maximal effect (EC50) was put at 10.2 nM.

B3 registered an EC50 of 49.7 nM.

A further assay deals with T4, recombinant cynomolgus monkey CD70 protein (cynomolgus monkey, UniProt A0A2K5WTU9 39-190).
T4 construct: it stands only in column heads ('Monkey', 'Cynomolgus Monkey CD70/CD27') and in result sentences; also called Monkey (ELISA)
T4 sequence: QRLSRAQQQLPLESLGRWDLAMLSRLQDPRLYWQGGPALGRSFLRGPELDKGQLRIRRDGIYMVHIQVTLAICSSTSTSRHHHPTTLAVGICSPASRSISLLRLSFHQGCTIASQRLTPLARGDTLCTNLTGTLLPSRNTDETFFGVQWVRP
The experiment in a line: competition ELISA, Fab titrated, cynomolgus CD27 coated, biotin-CD70. Here is the method:
as §2
On to B1, for which the IC50 was found to be 14.4 nM.

Turning to B2, the IC50 was determined as 0.37 nM.

Regarding B3, the IC50 amounted to 4.36 nM.

(Values after US20240247072A1 (KEYMED BIOSCIENCES, published 2024).)
